Assay results: article PMC12102759 (2025)

B1: SH3BP2 peptide 410-425 (SH3 domain-binding protein 2), 16-mer library wild type / TNKS ANK (TNKS 12 ANK repeats, residues 174-649) (parent complex)
chain 1: LPHLQRSPPDGQSFRS
chain 2: TGVPAVSGALRELLEACRNGDVSRVKRLVDAANVNAKDMAGRKSSPLHFAAGFGRKDVVEHLLQMGANVHARDDGGLIPLHNACSFGHAEVVSLLLCQGADPNARDNWNYTPLHEAAIKGKIDVCIVLLQHGADPNIRNTDGKSALDLADPSAKAVLTGEYKKDELLEAARSGNEEKLMALLTPLNVNCHASDGRKSTPLHLAAGYNRVRIVQLLLQHGADVHAKDKGGLVPLHNACSYGHYEVTELLLKHGACVNAMDLWQFTPLHEAASKNRVEVCSLLLSHGADPTLVNCHGKSAVDMAPTPELRERLTYEFKGHSLLQAAREADLAKVKKTLALEIINFKQPQSHETALHCAVASLHPKRKQVTELLLRKGANVNEKNKDFMTPLHVAAERAHNDVMEVLHKHGAKMNALDTLGQTALHRAALAGHLQTCRLLLSYGSDPSIISLQGFTAAQMGNEAVQQILSESTPIRTSD
B2: ATXN2 peptide 913-928 (Ataxin-2), 16-mer library wild type / PABPC1 PABC (PABPC1 PABC domain, residues 544-623) (parent complex)
chain 1: TLNPNAKEFNPRSFSQ
chain 2: PLTASMLASAPPQEQKQMLGERLFPLIQAMHPTLAGKITGMLLEIDNSELLHMLESPESLRSKVDEAVAVLQAHQAKEAA

Variants of: B1
Experiment: proteomic peptide phage display deep mutational scan (ProP-PD DMS): M13 P8 16-mer library selected against immobilised GST-tagged bait for four days (rounds), NGS of the eluted pools per day and pseudo-replica; bait immobilised on MaxiSorp plates (10 µg), library pre-cleared on GST, 2 h binding at 4 °C, five washes; one round per day, days 1-4; value from days 2 and 3

| Variant | screen value |
| --- | --- |
| chain 1 Q5W | 0.000468 average fractional NGS count over selection days 2 and 3 (reads of this peptide / all reads for the bait, averaged over … |
| chain 1 Q5Y | 0.00141 average fractional NGS count over selection days 2 and 3 (reads of this peptide / all reads for the bait, averaged over … |
| chain 1 F14T | 0.0022 average fractional NGS count over selection days 2 and 3 (reads of this peptide / all reads for the bait, averaged over … |
| chain 1 F14N | 0.000125 average fractional NGS count over selection days 2 and 3 (reads of this peptide / all reads for the bait, averaged over … |
| chain 1 F14E | 0.00017 average fractional NGS count over selection days 2 and 3 (reads of this peptide / all reads for the bait, averaged over … |
| chain 1 F14G | 0.000932 average fractional NGS count over selection days 2 and 3 (reads of this peptide / all reads for the bait, averaged over … |
| chain 1 F14I | 0.00763 average fractional NGS count over selection days 2 and 3 (reads of this peptide / all reads for the bait, averaged over … |
| chain 1 S13E | 0.00174 average fractional NGS count over selection days 2 and 3 (reads of this peptide / all reads for the bait, averaged over … |
| chain 1 S13A | 0.000295 average fractional NGS count over selection days 2 and 3 (reads of this peptide / all reads for the bait, averaged over … |
| chain 1 S13I | 0.0065 average fractional NGS count over selection days 2 and 3 (reads of this peptide / all reads for the bait, averaged over … |
| chain 1 L4H | 0.000978 average fractional NGS count over selection days 2 and 3 (reads of this peptide / all reads for the bait, averaged over … |
| chain 1 L4I | 0.00171 average fractional NGS count over selection days 2 and 3 (reads of this peptide / all reads for the bait, averaged over … |
| chain 1 D10A | 0.000226 average fractional NGS count over selection days 2 and 3 (reads of this peptide / all reads for the bait, averaged over … |
| chain 1 P2T | 0.00034 average fractional NGS count over selection days 2 and 3 (reads of this peptide / all reads for the bait, averaged over … |
| chain 1 Q12M | 0.00481 average fractional NGS count over selection days 2 and 3 (reads of this peptide / all reads for the bait, averaged over … |
| chain 1 Q12S | 0.000969 average fractional NGS count over selection days 2 and 3 (reads of this peptide / all reads for the bait, averaged over … |
| chain 1 Q12W | 0.000548 average fractional NGS count over selection days 2 and 3 (reads of this peptide / all reads for the bait, averaged over … |

| Variant | screen value |
| --- | --- |
| chain 1 Q12G | 0.000919 average fractional NGS count over selection days 2 and 3 (reads of this peptide / all reads for the bait, averaged over … |
| chain 1 Q12F | 0.000426 average fractional NGS count over selection days 2 and 3 (reads of this peptide / all reads for the bait, averaged over … |
| chain 1 G11N | 0.000201 average fractional NGS count over selection days 2 and 3 (reads of this peptide / all reads for the bait, averaged over … |
| chain 1 R15H | 0.00172 average fractional NGS count over selection days 2 and 3 (reads of this peptide / all reads for the bait, averaged over … |
| chain 1 R15G | 0.00618 average fractional NGS count over selection days 2 and 3 (reads of this peptide / all reads for the bait, averaged over … |
| chain 1 R15W | 0.000302 average fractional NGS count over selection days 2 and 3 (reads of this peptide / all reads for the bait, averaged over … |
| chain 1 R15S | 0.00343 average fractional NGS count over selection days 2 and 3 (reads of this peptide / all reads for the bait, averaged over … |
| chain 1 R15F | 0.000621 average fractional NGS count over selection days 2 and 3 (reads of this peptide / all reads for the bait, averaged over … |
| chain 1 S7Y | 0.00213 average fractional NGS count over selection days 2 and 3 (reads of this peptide / all reads for the bait, averaged over … |
| chain 1 S7Q | 0.00222 average fractional NGS count over selection days 2 and 3 (reads of this peptide / all reads for the bait, averaged over … |
| chain 1 H3W | 0.000238 average fractional NGS count over selection days 2 and 3 (reads of this peptide / all reads for the bait, averaged over … |
| chain 1 H3I | 0.000522 average fractional NGS count over selection days 2 and 3 (reads of this peptide / all reads for the bait, averaged over … |
| chain 1 H3F | 0.000397 average fractional NGS count over selection days 2 and 3 (reads of this peptide / all reads for the bait, averaged over … |
| chain 1 L1V | 0.00338 average fractional NGS count over selection days 2 and 3 (reads of this peptide / all reads for the bait, averaged over … |
| chain 1 L1H | 0.00559 average fractional NGS count over selection days 2 and 3 (reads of this peptide / all reads for the bait, averaged over … |
| chain 1 L1N | 0.0011 average fractional NGS count over selection days 2 and 3 (reads of this peptide / all reads for the bait, averaged over … |
| chain 1 L1Y | 0.00138 average fractional NGS count over selection days 2 and 3 (reads of this peptide / all reads for the bait, averaged over … |

Variants of: B2
Experiment: as above

| Variant | screen value |
| --- | --- |
| chain 1 E8T | 0.00103 average fractional NGS count over selection days 2 and 3 (reads of this peptide / all reads for the bait, averaged over … |
| chain 1 E8N | 0.00138 average fractional NGS count over selection days 2 and 3 (reads of this peptide / all reads for the bait, averaged over … |
| chain 1 E8H | 0.00041 average fractional NGS count over selection days 2 and 3 (reads of this peptide / all reads for the bait, averaged over … |
| chain 1 E8Q | 0.000543 average fractional NGS count over selection days 2 and 3 (reads of this peptide / all reads for the bait, averaged over … |
| chain 1 E8M | 0.00043 average fractional NGS count over selection days 2 and 3 (reads of this peptide / all reads for the bait, averaged over … |
| chain 1 E8Y | 0.000547 average fractional NGS count over selection days 2 and 3 (reads of this peptide / all reads for the bait, averaged over … |
| chain 1 E8V | 0.00108 average fractional NGS count over selection days 2 and 3 (reads of this peptide / all reads for the bait, averaged over … |
| chain 1 E8S | 0.00107 average fractional NGS count over selection days 2 and 3 (reads of this peptide / all reads for the bait, averaged over … |
| chain 1 P11F | 0.00198 average fractional NGS count over selection days 2 and 3 (reads of this peptide / all reads for the bait, averaged over … |
| chain 1 P11Q | 0.000241 average fractional NGS count over selection days 2 and 3 (reads of this peptide / all reads for the bait, averaged over … |
| chain 1 P11N | 0.000672 average fractional NGS count over selection days 2 and 3 (reads of this peptide / all reads for the bait, averaged over … |
| chain 1 P11W | 0.000361 average fractional NGS count over selection days 2 and 3 (reads of this peptide / all reads for the bait, averaged over … |
| chain 1 P11G | 0.000676 average fractional NGS count over selection days 2 and 3 (reads of this peptide / all reads for the bait, averaged over … |
| chain 1 P11H | 0.00248 average fractional NGS count over selection days 2 and 3 (reads of this peptide / all reads for the bait, averaged over … |
| chain 1 P11T | 0.00444 average fractional NGS count over selection days 2 and 3 (reads of this peptide / all reads for the bait, averaged over … |
| chain 1 P11V | 0.00178 average fractional NGS count over selection days 2 and 3 (reads of this peptide / all reads for the bait, averaged over … |
| chain 1 P11L | 0.000381 average fractional NGS count over selection days 2 and 3 (reads of this peptide / all reads for the bait, averaged over … |
| chain 1 P11D | 8.69e-05 average fractional NGS count over selection days 2 and 3 (reads of this peptide / all reads for the bait, averaged over … |
| chain 1 P11M | 0.000174 average fractional NGS count over selection days 2 and 3 (reads of this peptide / all reads for the bait, averaged over … |
| chain 1 N10L | 0.00266 average fractional NGS count over selection days 2 and 3 (reads of this peptide / all reads for the bait, averaged over … |
| chain 1 N10Q | 0.00128 average fractional NGS count over selection days 2 and 3 (reads of this peptide / all reads for the bait, averaged over … |

| Variant | screen value |
| --- | --- |
| chain 1 N10R | 0.000511 average fractional NGS count over selection days 2 and 3 (reads of this peptide / all reads for the bait, averaged over … |
| chain 1 N10T | 0.00052 average fractional NGS count over selection days 2 and 3 (reads of this peptide / all reads for the bait, averaged over … |
| chain 1 N10D | 0.0012 average fractional NGS count over selection days 2 and 3 (reads of this peptide / all reads for the bait, averaged over … |
| chain 1 N10W | 0.000811 average fractional NGS count over selection days 2 and 3 (reads of this peptide / all reads for the bait, averaged over … |
| chain 1 N10H | 0.000309 average fractional NGS count over selection days 2 and 3 (reads of this peptide / all reads for the bait, averaged over … |
| chain 1 N10S | 0.000422 average fractional NGS count over selection days 2 and 3 (reads of this peptide / all reads for the bait, averaged over … |
| chain 1 F9W | 0.00363 average fractional NGS count over selection days 2 and 3 (reads of this peptide / all reads for the bait, averaged over … |
| chain 1 L2M | 0.000384 average fractional NGS count over selection days 2 and 3 (reads of this peptide / all reads for the bait, averaged over … |
| chain 1 L2F | 0.000314 average fractional NGS count over selection days 2 and 3 (reads of this peptide / all reads for the bait, averaged over … |
| chain 1 L2W | 0.000443 average fractional NGS count over selection days 2 and 3 (reads of this peptide / all reads for the bait, averaged over … |
| chain 1 L2Y | 0.000336 average fractional NGS count over selection days 2 and 3 (reads of this peptide / all reads for the bait, averaged over … |
| chain 1 P4V | 0.00399 average fractional NGS count over selection days 2 and 3 (reads of this peptide / all reads for the bait, averaged over … |
| chain 1 P4T | 0.000273 average fractional NGS count over selection days 2 and 3 (reads of this peptide / all reads for the bait, averaged over … |
| chain 1 P4H | 0.000277 average fractional NGS count over selection days 2 and 3 (reads of this peptide / all reads for the bait, averaged over … |
| chain 1 A6T | 0.000787 average fractional NGS count over selection days 2 and 3 (reads of this peptide / all reads for the bait, averaged over … |
| chain 1 A6V | 0.00065 average fractional NGS count over selection days 2 and 3 (reads of this peptide / all reads for the bait, averaged over … |
| chain 1 A6S | 0.000246 average fractional NGS count over selection days 2 and 3 (reads of this peptide / all reads for the bait, averaged over … |
| chain 1 N3D | 0.00069 average fractional NGS count over selection days 2 and 3 (reads of this peptide / all reads for the bait, averaged over … |
| chain 1 N3S | 0.0019 average fractional NGS count over selection days 2 and 3 (reads of this peptide / all reads for the bait, averaged over … |
| chain 1 N3Q | 0.00023 average fractional NGS count over selection days 2 and 3 (reads of this peptide / all reads for the bait, averaged over … |
